T1: MPDZ_6, O75970
T1 sequence (O75970 1003-1099, limits assumed, looked up): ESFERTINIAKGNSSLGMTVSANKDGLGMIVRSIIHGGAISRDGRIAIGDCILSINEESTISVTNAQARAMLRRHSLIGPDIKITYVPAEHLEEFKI

T2: PTPN13_4, Q12923
T2 sequence (Q12923 1783-1878, limits assumed, looked up): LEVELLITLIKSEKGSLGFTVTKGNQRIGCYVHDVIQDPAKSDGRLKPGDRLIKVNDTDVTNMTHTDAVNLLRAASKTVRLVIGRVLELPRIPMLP

T3: PDZD2_3, O15018
T3 sequence (O15018 581-682, limits assumed, looked up): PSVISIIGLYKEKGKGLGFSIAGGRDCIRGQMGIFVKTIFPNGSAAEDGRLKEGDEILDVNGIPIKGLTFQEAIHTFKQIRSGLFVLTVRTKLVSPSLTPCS

T4: MPP5, Q8N3R9
T4 sequence (Q8N3R9 251-346, limits assumed, looked up): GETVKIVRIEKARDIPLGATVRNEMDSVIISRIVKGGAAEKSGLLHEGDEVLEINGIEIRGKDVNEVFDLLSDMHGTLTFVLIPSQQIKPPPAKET

T5: USH1C_3, Q9Y6N9
T5 sequence (Q9Y6N9 447-547, limits assumed, looked up): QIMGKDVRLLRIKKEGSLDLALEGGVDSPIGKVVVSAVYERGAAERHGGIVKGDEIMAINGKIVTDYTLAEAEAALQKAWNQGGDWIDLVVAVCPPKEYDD

T6: PREX2_2, Q70Z35
T6 sequence (Q70Z35 672-764, limits assumed, looked up): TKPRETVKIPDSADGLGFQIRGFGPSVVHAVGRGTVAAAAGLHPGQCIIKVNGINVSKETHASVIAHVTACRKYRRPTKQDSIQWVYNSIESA

T7: GIPC1, O14908
T7 sequence (O14908 128-223, limits assumed, looked up): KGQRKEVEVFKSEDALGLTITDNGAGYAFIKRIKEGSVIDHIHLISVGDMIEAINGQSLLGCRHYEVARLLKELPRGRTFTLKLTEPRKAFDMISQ

T8: NHERF1_2, O14745
T8 sequence (O14745 149-244, limits assumed, looked up): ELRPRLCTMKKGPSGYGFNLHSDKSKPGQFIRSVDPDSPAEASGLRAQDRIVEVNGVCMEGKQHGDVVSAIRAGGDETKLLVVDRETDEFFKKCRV

T9: PDLIM3, Q53GG5
T9 sequence (Q53GG5 1-94, limits assumed, looked up): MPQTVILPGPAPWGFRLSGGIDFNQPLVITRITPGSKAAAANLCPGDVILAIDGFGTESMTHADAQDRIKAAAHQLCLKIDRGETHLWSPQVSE

T10: MPDZ_7, O75970
T10 sequence (O75970 1146-1253, limits assumed, looked up): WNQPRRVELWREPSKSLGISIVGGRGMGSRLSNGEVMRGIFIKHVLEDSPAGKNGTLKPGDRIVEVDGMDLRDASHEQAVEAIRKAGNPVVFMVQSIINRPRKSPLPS

T11: TIAM2, Q8IVF5
T11 sequence (Q8IVF5 885-986, limits assumed, looked up): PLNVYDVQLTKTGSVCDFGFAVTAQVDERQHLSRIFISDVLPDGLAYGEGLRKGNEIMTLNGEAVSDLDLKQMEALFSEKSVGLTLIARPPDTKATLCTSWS

T12: MLLT4, P55196
T12 sequence (P55196 1002-1103, limits assumed, looked up): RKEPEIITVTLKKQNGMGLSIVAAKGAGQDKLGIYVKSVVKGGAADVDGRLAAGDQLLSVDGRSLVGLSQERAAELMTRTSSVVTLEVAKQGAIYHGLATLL


Columns and labels:
Assay in all cases: holdup assay
Design in all cases: key: below the threshold = too weak to quantify, mostly under pKd 3.1 to 4
Settings in all cases: plain residues with an end cap or a label only (N-terminal biotin on a linker: ttds)
[1] = target: CARD14, Q9BXL6
Chain of CARD14, Q9BXL6 (Q9BXL6 558-663): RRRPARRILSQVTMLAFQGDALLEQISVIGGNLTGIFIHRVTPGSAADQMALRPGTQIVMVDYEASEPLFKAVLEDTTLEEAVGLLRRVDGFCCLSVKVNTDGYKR

[2] = target: T1, MPDZ_6, O75970
[3] = target: T2, PTPN13_4, Q12923
[4] = target: T3, PDZD2_3, O15018
[5] = target: PDLIM4, P50479
Chain of PDLIM4, P50479 (P50479 1-83): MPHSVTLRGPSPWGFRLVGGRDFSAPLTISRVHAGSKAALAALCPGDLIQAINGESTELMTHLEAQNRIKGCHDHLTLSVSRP

[6] = target: T4, MPP5, Q8N3R9
[7] = target: T5, USH1C_3, Q9Y6N9
[8] = target: T6, PREX2_2, Q70Z35
[9] = target: GRIP2_2, Q9C0E4
Chain of GRIP2_2, Q9C0E4 (Q9C0E4 137-245): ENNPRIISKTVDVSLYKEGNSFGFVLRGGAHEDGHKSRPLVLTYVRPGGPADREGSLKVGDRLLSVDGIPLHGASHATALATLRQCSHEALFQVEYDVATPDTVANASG

[10] = target: T7, GIPC1, O14908
[11] = target: T8, NHERF1_2, O14745
[12] = target: DLG5_2, Q8TDM6
Chain of DLG5_2, Q8TDM6 (Q8TDM6 714-800): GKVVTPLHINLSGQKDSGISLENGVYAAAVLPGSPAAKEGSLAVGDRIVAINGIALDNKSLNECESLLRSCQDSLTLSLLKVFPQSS

[13] = target: MAGI3_6, Q5TCQ9
Chain of MAGI3_6, Q5TCQ9 (Q5TCQ9 1014-1103): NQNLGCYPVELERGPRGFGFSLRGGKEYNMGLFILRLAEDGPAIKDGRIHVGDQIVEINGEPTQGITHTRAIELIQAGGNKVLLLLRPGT

[14] = target: T9, PDLIM3, Q53GG5
[15] = target: T10, MPDZ_7, O75970
[16] = target: DLG2_1, Q15700
[17] = target: TJP1_1, Q07157
Chain of TJP1_1, Q07157 (Q07157 18-120): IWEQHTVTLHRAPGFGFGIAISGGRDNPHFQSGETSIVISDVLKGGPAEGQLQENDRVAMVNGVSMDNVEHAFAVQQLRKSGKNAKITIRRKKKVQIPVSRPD

[18] = target: MAGI1_6, Q96QZ7
Chain of MAGI1_6, Q96QZ7 (Q96QZ7 1146-1238): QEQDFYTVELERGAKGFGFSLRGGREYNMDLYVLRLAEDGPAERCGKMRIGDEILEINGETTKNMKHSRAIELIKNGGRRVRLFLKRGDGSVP

[19] = target: PREX1_1, Q8TCU6
Chain of PREX1_1, Q8TCU6 (Q8TCU6 608-718): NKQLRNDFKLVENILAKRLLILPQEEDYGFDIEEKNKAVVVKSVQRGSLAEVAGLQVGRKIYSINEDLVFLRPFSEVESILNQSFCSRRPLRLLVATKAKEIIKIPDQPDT

[20] = target: SCRIB_4, Q14160
Chain of SCRIB_4, Q14160 (Q14160 1095-1204): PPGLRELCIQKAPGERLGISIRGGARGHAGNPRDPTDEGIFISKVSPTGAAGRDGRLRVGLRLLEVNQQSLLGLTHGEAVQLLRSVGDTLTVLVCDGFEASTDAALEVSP

[21] = target: MAGI1_5, Q96QZ7
Chain of MAGI1_5, Q96QZ7 (Q96QZ7 986-1098): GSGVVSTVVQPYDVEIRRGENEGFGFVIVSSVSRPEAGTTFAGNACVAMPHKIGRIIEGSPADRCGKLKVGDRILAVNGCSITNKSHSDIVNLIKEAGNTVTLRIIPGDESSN

[22] = target: T11, TIAM2, Q8IVF5
[23] = target: LMO7, Q8WWI1
Chain of LMO7, Q8WWI1 (Q8WWI1 1037-1138): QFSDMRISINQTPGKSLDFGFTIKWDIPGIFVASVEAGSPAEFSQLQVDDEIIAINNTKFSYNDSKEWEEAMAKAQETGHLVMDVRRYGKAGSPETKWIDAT

[24] = target: T12, MLLT4, P55196

Binder | pKd [1] | pKd [2] | pKd [3] | pKd [4] | pKd [5] | pKd [6] | pKd [7] | pKd [8] | pKd [9] | pKd [10] | pKd [11] | pKd [12] | pKd [13] | pKd [14] | pKd [15] | pKd [16] | pKd [17] | pKd [18] | pKd [19] | pKd [20] | further results
NYWPGKETQL [SLCO1C1, Q9NYB5] | below the threshold | below the threshold | below the threshold | below the threshold | below the threshold | below the threshold | below the threshold | below the threshold | below the threshold | below the threshold | below the threshold | below the threshold | 4.36 | below the threshold | 5.2 | below the threshold | below the threshold | below the threshold | below the threshold | 4.83 | pKd [21]: 4.47; pKd [22]: below the threshold; pKd [23]: below the threshold; pKd [24]: below the threshold
SEKHFRETEV [HTLV1-TAX1, P03409] | below the threshold | below the threshold | below the threshold | below the threshold | 4.54 | below the threshold | below the threshold | below the threshold | below the threshold | 4.86 | below the threshold | 5.06 | 4.54 | 4.12 | 4.44 | 5.16 | below the threshold | 4.41 | below the threshold | 4.43 | pKd [21]: 5.22; pKd [22]: below the threshold; pKd [23]: below the threshold; pKd [24]: 4.08
HIVEALETDV [PBK, Q96KB5] | below the threshold | below the threshold | below the threshold | below the threshold | below the threshold | below the threshold | below the threshold | below the threshold | below the threshold | 5.37 | below the threshold | below the threshold | 4.62 | below the threshold | below the threshold | 4.74 | below the threshold | 4.91 | below the threshold | below the threshold | pKd [21]: below the threshold; pKd [22]: below the threshold; pKd [23]: below the threshold; pKd [24]: below the threshold
MERLRVETDV [ARHGEF16, Q5VV41] | below the threshold | below the threshold | below the threshold | below the threshold | below the threshold | below the threshold | below the threshold | 4.17 | below the threshold | 4.71 | below the threshold | below the threshold | below the threshold | below the threshold | below the threshold | 4.1 | below the threshold | 4.33 | below the threshold | below the threshold | pKd [21]: below the threshold; pKd [22]: below the threshold; pKd [23]: below the threshold; pKd [24]: below the threshold
IQREDQETAV [DGKZ, Q13574] | below the threshold | below the threshold | below the threshold | below the threshold | below the threshold | below the threshold | below the threshold | below the threshold | below the threshold | 4.92 | below the threshold | below the threshold | below the threshold | below the threshold | below the threshold | 4.71 | below the threshold | 4.35 | below the threshold | 4.4 | pKd [21]: 5.06; pKd [22]: below the threshold; pKd [23]: below the threshold; pKd [24]: below the threshold
DPLTPSRSQL [DGKK, Q5KSL6] | below the threshold | below the threshold | below the threshold | below the threshold | below the threshold | below the threshold | below the threshold | below the threshold | below the threshold | below the threshold | below the threshold | below the threshold | below the threshold | below the threshold | below the threshold | below the threshold | below the threshold | below the threshold | below the threshold | below the threshold | pKd [21]: below the threshold; pKd [22]: below the threshold; pKd [23]: below the threshold; pKd [24]: below the threshold

Reference: PMC9482650, “Quantitative fragmentomics allow affinity mapping of interactomes” (Nature Communications, 2022)
